Experimental data reported in patent US20200369770A1 (NANJING LEGEND BIOTECH, published 2020).

B1: AS19584VH28 HCAb (antibody, human IgG4 S228P, V domains shown)
VH: EVQLVESGGGLVQPGGSLRLSCAASGYKYGVYSMGWFRQAPGKGLEGVSAICSGGRTTYSDSVKGRFTISRDNSNQILYLQMNSLRAEDTAVYYCAARPLWTGDCDLSSSWYKTWGQGTLVTVSS
notes: positive control for TIGIT; also called anti-TIGIT AS19584VH28 HCAb
B2: VHH2 HCAb (antibody, human IgG4 S228P, V domains shown)
VH: EVQLVESGGGLVQPGGSLRLSCAASGYTVSSYCMGWFRQAPGKGREGVSAIDSDGSVSYADSVKGRFTISKDNSKNTLYLQMNSLRAEDTAVYFCAADLCWVDQDQGEYNTWGQGTLVTVSS
notes: positive control for LAG-3; also called anti-LAG-3 VHH2 HCAb

Columns and labels:
[1] = target: T1, human TIGIT expressed on CHO cells (human, UniProt Q495A1 22-244); test: FACS on CHO cells expressing human TIGIT; column TIGIT / Cell binding (EC50 nM)
T1 construct: also called CHO cells expressing human TIGIT
T1 sequence: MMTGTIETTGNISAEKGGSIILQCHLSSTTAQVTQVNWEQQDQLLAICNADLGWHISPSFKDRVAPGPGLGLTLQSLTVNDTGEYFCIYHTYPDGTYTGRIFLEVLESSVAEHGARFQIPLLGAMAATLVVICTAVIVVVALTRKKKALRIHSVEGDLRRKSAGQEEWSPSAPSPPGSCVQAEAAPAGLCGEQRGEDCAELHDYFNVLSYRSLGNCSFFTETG
Experimental: (§1) The mixture was equilibrated for 30 minutes at room temperature, and washed three times with FACS buffer (PBS containing 1% BSA). FITC-conjugated anti-human Fc antibody (Jackson ImmunoResearch) used as secondary antibody was then added and the mixture was incubated for 15 minutes at room temperature. Cells were washed again with FACS buffer and analyzed by flow cytometry. Data were analyzed with PRISM™ (GraphPad Software, San Diego, Calif.) using non-linear regression, and EC₅₀ values were calculated.

[2] = target: T1, human TIGIT expressed on CHO cells; test: FACS competition on CHO cells expressing human TIGIT, blocked ligand biotinylated hCD155 Fc; column TIGIT / Ligand competition (IC50 nM)
Experimental: (§2) Each mixture was equilibrated for 30 minutes at room temperature, and washed three times with FACS buffer (PBS containing 1% BSA). PE/Cy5 Streptavidin secondary antibody was then added to each mixture and incubated for 15 minutes at room temperature. Subsequently, the cells were washed again with FACS buffer and analyzed by flow cytometry. Data was analyzed with PRISM™ (GraphPad Software, San Diego, Calif.) using non-linear regression, and IC₅₀ values were calculated.

[3] = target: T2, His-tagged TIGIT protein (Homo sapiens (Human), UniProt Q495A1 22-141); test: SPR (BIACORE T200), His-tagged TIGIT as analyte over captured binder; column TIGIT / Affinity (nM)
T2 construct: SPR analyte; not shown: His tag
T2 sequence: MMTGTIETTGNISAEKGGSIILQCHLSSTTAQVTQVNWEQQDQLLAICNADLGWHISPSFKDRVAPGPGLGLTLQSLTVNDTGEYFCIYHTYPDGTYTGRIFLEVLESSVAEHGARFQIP
Source text: Binding curves at different analyte concentrations were used to calculate the kinetic parameters kₒₙ, koff and Kd (FIGS. 13A-13K).

[4] = target: T3, LAG-3 Fc fusion protein having a biotin-label (Homo sapiens (Human), UniProt P18627 29-450, limits assumed, biotin label (site not stated)); test: FACS competition, binding of biotinylated LAG-3 Fc to MHC class II on A375 cells blocked; column LAG-3 / Ligand competition (IC50 nM)
T3 construct: not shown: Fc
T3 sequence: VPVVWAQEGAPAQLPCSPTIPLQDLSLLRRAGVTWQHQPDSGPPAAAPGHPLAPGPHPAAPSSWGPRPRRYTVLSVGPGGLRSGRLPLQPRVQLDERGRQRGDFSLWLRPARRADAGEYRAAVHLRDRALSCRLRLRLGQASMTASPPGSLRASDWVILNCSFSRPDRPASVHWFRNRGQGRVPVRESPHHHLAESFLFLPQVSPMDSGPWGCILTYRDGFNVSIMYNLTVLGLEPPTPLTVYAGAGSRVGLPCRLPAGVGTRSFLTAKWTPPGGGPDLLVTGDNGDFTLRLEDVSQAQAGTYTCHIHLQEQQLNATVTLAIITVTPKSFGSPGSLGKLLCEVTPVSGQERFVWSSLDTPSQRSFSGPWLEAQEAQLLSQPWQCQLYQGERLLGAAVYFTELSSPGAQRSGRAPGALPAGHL
Experimental: as §2

[5] = target: T4, His-tagged LAG-3 protein (Homo sapiens (Human), UniProt P18627 29-450, limits assumed); test: SPR (BIACORE T200), His-tagged LAG-3 as analyte over immobilized binder; column LAG-3 / Affinity (nM)
T4 construct: SPR analyte; not shown: His tag
T4 sequence: T3 sequence
Source text: Binding curves at different analyte concentrations were used to calculate the kinetic parameters kₒₙ, koff and Kd (FIGS. 14A-14K).

[6] = target: T5, human LAG-3 expressed on CHO cells (human, UniProt P18627 29-525); test: FACS on CHO cells expressing human LAG-3; column LAG-3 / Cell binding (EC50 nM)
T5 construct: also called CHO cells expressing human LAG-3
T5 sequence: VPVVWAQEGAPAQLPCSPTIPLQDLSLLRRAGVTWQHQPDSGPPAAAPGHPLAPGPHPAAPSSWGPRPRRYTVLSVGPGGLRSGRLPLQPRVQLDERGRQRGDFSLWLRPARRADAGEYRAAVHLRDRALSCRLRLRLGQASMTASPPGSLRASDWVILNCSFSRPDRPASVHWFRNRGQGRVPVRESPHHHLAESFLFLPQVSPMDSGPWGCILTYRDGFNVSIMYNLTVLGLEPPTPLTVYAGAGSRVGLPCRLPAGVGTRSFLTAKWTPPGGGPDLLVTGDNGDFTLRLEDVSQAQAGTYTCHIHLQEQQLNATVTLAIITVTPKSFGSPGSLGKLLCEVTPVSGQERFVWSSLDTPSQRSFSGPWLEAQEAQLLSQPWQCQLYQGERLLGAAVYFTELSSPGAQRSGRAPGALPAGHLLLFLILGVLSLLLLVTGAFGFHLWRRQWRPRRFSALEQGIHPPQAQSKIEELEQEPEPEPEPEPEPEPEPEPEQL
Experimental: as §1, with “and” for “and the mixture was”, “Data was” for “Data were”

| Binder | EC50 [1] [nM] | IC50 [2] [nM] | Kd [3] [nM] | IC50 [4] [nM] | Kd [5] [nM] | EC50 [6] [nM] |
| --- | --- | --- | --- | --- | --- | --- |
| B1 | 4.99 | 8.61 | 0.44 | – | – | – |
| B2 | – | – | – | 11 | 0.45 | 1.82 |
